This note sets out measurements from US20040092720A1 (US Dept. of Health and Human Services, published 2004).

B1: Peptide C7 (peptide)
peptide: SSFYRLRFELRYRAE
B2: Peptide C12 (peptide)
peptide: SSFYRLRFEL
B3: Peptide C13 (peptide)
peptide: SSFYRLRFE
B4: Peptide A5 (peptide)
peptide: AAGSHPSRWAGMGRRLL
B5: Peptide C24 (peptide)
peptide: FELRYRAERSKTFT
B6: Peptide C25 (peptide)
peptide: ELRYRAERSKTFT
B7: Peptide C34 (peptide)
peptide: SSFYRLRFELRYRAERSKTFA
B8: Peptide C46 (peptide)
peptide: SSFYRLRAELRYRAERSKTFT
notes: alanine-scan variant of the domain III 21-mer
B9: Peptide C43 (peptide)
peptide: SSFYRLRFELAYRAERSKTFT
notes: as for B8
B10: Peptide C45 (peptide)
peptide: SSFYRLRFALRYRAERSKTFT
notes: as for B8
B11: Peptide C35 (peptide)
peptide: SSFYRLRFELRYRAERSKTAT
notes: as for B8
B12: Peptide C38 (peptide)
peptide: SSFYRLRFELRYRAERAKTFT
notes: as for B8
B13: Peptide C44 (peptide)
peptide: SSFYRLRFEARYRAERSKTFT
notes: as for B8
B14: Peptide C40 (peptide)
peptide: SSFYRLRFELRYRAARSKTFT
notes: as for B8
B15: Peptide C37 (peptide)
peptide: SSFYRLRFELRYRAERSATFT
notes: as for B8
B16: Peptide C47 (peptide)
peptide: SSFYRLAFELRYRAERSKTFT
notes: as for B8
B17: Peptide C41 (peptide)
peptide: SSFYRLRFELRYAAERSKTFT
notes: as for B8
B18: Peptide C42 (peptide)
peptide: SSFYRLRFELRARAERSKTFT
notes: as for B8
B19: Peptide C36 (peptide)
peptide: SSFYRLRFELRYRAERSKAFT
notes: as for B8
B20: Peptide C39 (peptide)
peptide: SSFYRLRFELRYRAEASKTFT
notes: as for B8
B21: Peptide C4 (peptide)
peptide: SSFYRLRFELRYRAERSK
B22: Peptide A4 (peptide)
peptide: AAGSHPSRWAGMGRRLLL
B23: Peptide B34 (peptide)
peptide: PRSTPSLTTKAVLLVRKFQNA
notes: alanine-scan variant of the domain II 21-mer
B24: Peptide B39 (peptide)
peptide: PRSTPSLTTKAVLLVAKFQNS
notes: as for B23
B25: Peptide B45 (peptide)
peptide: PRSTPSLTAKAVLLVRKFQNS
notes: as for B23
B26: Peptide B37 (peptide)
peptide: PRSTPSLTTKAVLLVRKAQNS
notes: as for B23
B27: Peptide B44 (peptide)
peptide: PRSTPSLTTAAVLLVRKFQNS
notes: as for B23
B28: Peptide B36 (peptide)
peptide: PRSTPSLTTKAVLLVRKFANS
notes: as for B23
B29: Peptide B38 (peptide)
peptide: PRSTPSLTTKAVLLVRAFQNS
notes: as for B23
B30: Peptide B43 (peptide)
peptide: PRSTPSLTTKAALLVRKFQNS
notes: as for B23
B31: Peptide B35 (peptide)
peptide: PRSTPSLTTKAVLLVRKFQAS
notes: as for B23
B32: Peptide B40 (peptide)
peptide: PRSTPSLTTKAVLLARKFQNS
notes: as for B23
B33: Peptide B46 (peptide)
peptide: PRSTPSLATKAVLLVRKFQNS
notes: as for B23
B34: Peptide B41 (peptide)
peptide: PRSTPSLTTKAVLAVRKFQNS
notes: as for B23
B35: Peptide B42 (peptide)
peptide: PRSTPSLTTKAVALVRKFQNS
notes: as for B23
B36: Peptide B47 (peptide)
peptide: PRSTPSATTKAVLLVRKFQNS
notes: as for B23
B37: Peptide C16 (peptide)
peptide: SSFYRL
notes: also called SSFYRL
B38: Peptide C28 (peptide)
peptide: YRAERSKTFT
B39: Peptide C26 (peptide)
peptide: LRYRAERSKTFT
B40: Peptide C14 (peptide)
peptide: SSFYRLRF
B41: Peptide C21 (peptide)
peptide: RLRFELRYRAERSKTFT
B42: Peptide C23 (peptide)
peptide: RFELRYRAERSKTFT
B43: Peptide C18 (peptide)
peptide: SFYRLRFELRYRAERSKTFT
B44: Peptide C3 (peptide)
peptide: SSFYRLRFELRYRAERSKT
B45: Peptide C32 (peptide)
peptide: RSKTFT
notes: also called RSKTFT
B46: Peptide C9 (peptide)
peptide: SSFYRLRFELRYR
B47: Peptide C2 (peptide)
peptide: SSFYRLRFELRYRAERSKTF
B48: Peptide C22 (peptide)
peptide: LRFELRYRAERSKTFT
B49: Peptide C27 (peptide)
peptide: RYRAERSKTFT
B50: Peptide C15 (peptide)
peptide: SSFYRLR
notes: also called SSFYRLR
B51: Peptide C30 (peptide)
peptide: AERSKTFT
B52: Peptide C10 (peptide)
peptide: SSFYRLRFELRY
B53: Peptide C6 (peptide)
peptide: SSFYRLRFELRYRAER
B54: Peptide C11 (peptide)
peptide: SSFYRLRFELR
B55: Peptide A3 (peptide)
peptide: AAGSHPSRWAGMGRRLLLR
B56: Peptide C5 (peptide)
peptide: SSFYRLRFELRYRAERS
B57: Peptide C31 (peptide)
peptide: ERSKTFT
notes: also called ERSKTFT
B58: Peptide C19 (peptide)
peptide: FYRLRFELRYRAERSKTFT
B59: Peptide A2 (peptide)
peptide: AAGSHPSRWAGMGRRLLLRS
B60: Peptide C29 (peptide)
peptide: RAERSKTFT
B61: Peptide C8 (peptide)
peptide: SSFYRLRFELRYRA
B62: Peptide C20 (peptide)
peptide: YRLRFELRYRAERSKTFT

The assay addresses T1, recombinant human IL-6 (human, UniProt P05231 30-212, labeled with radioactive iodine).
T1 construct: Labeled probe in solution, added to wells that carry the synthetic peptides; also called IL-6 ligand; Interleukin-6
Description: radioiodinated IL-6 on peptide array. The procedure: Synthetic peptide arrays were constructed in 96-well microtiter plates in accordance with the method set forth in WO 91/02714 (Saxinger), and used to test the binding of recombinant human IL-6 that had been labeled with radioactive iodine (radiolabeling by standard methods). After incubating the radiolabeled IL-6 ligand in a well with each synthetic peptide, a washing step was performed to remove unbound label, and the relative level of radioactivity remaining in each well of the plate was evaluated to determine the relative affinity of each peptide for IL-6 ligand.
Turning to B1, the Counts/minute bound worked out at 1820 counts/minute. Consider B2, for which the Counts/minute bound was found to be 1030 counts/minute. With B3 the figure was 1020 counts/minute; with B4, 2750 counts/minute. Then B5, with 5110 counts/minute. With B6 the figure was 2200 counts/minute; with B7, 17000 counts/minute. On to B8, for which the Counts/minute bound turned out to be 13400 counts/minute.

Take B9: the Counts/minute bound is 7550 counts/minute.

Consider B10, for which the Counts/minute bound was found to be 26800 counts/minute.

With B11, the Counts/minute bound worked out at 14800 counts/minute. With B12 the figure was 12300 counts/minute; with B13, 14100 counts/minute; with B14, 17300 counts/minute. For the molecule B15, the Counts/minute bound worked out at 7220 counts/minute. With B16 the figure was 9760 counts/minute.

B17: the Counts/minute bound was determined as 6740 counts/minute. Then B18, with 17500 counts/minute; and B19, with 15000 counts/minute.

Take B20: the Counts/minute bound came to 3430 counts/minute. Then B21, with 7620 counts/minute; and B22, with 5280 counts/minute; and B23, with 11400 counts/minute. With B24 the figure was 10800 counts/minute; with B25, 7490 counts/minute. Then B26, with 11600 counts/minute; and B27, with 19500 counts/minute. For the molecule B28, the Counts/minute bound was 10100 counts/minute. Then B29, with 11100 counts/minute; and B30, with 7160 counts/minute. With B31 the figure was 13200 counts/minute. With B32 the figure was 4540 counts/minute; with B33, 7680 counts/minute; with B34, 3760 counts/minute. As for B35, the Counts/minute bound was 3840 counts/minute. Turning to B36, the Counts/minute bound was determined as 8570 counts/minute. With B37 the figure was 865 counts/minute. As for B38, the Counts/minute bound stood at 2400 counts/minute. With B39 the figure was 6380 counts/minute; with B40, 952 counts/minute. With B41 the figure was 5990 counts/minute; with B42, 5310 counts/minute.

As for B43, the Counts/minute bound is 12800 counts/minute. Then B44, with 8210 counts/minute; and B45, with 1340 counts/minute; and B46, with 2170 counts/minute. Consider B47, for which the Counts/minute bound amounted to 13800 counts/minute. Turning to B48, the Counts/minute bound turned out to be 9610 counts/minute. Then B49, with 3150 counts/minute.

With B50, the Counts/minute bound was 991 counts/minute.

Consider B51, for which the Counts/minute bound stood at 1200 counts/minute. With B52 the figure was 1350 counts/minute; with B53, 2650 counts/minute. Then B54, with 1130 counts/minute; and B55, with 8010 counts/minute. As for B56, the Counts/minute bound came out at 4710 counts/minute. With B57 the figure was 1030 counts/minute. With B58 the figure was 10100 counts/minute; with B59, 9760 counts/minute. With B60 the figure was 1430 counts/minute. In the case of B61, the Counts/minute bound came to 2510 counts/minute. Take B62: the Counts/minute bound turned out to be 7570 counts/minute.
